Measurements as given in paper PMC5504291, “Bacterial lipid droplets bind to DNA via an intermediary protein that enhances survival under stress”.

Assays:
[1] = molecular target: T1, MLDSR (GST-MLDSR) (Rhodococcus jostii RHA1, UniProt A0A1H4Y2R3 2-168); experiment: SPR; 1:1 model though DNA holds two sites; EMSA: 20 mM Tris-HCl pH 7.5, 150 mM NaCl, 5 mM MgCl2, 1 mM EDTA, 1 mM DTT, 4% glycerol, 24 C or room temperature, 30-40 min; SPR: 20 mM Tris-HCl pH 7.5, 150 mM; settings: protein: recombinant; tags: N-terminal GST; label: 5'-biotin on strand 1; blunt
T1 sequence: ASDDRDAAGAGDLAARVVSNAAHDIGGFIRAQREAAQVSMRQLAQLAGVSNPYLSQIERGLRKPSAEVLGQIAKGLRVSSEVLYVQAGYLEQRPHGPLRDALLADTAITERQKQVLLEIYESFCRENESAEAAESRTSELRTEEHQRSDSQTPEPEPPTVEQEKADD

[2] = molecular target: T1, MLDSR (GST-MLDSR); experiment: EMSA; rough estimate by authors from Fig. 5b; EMSA: 20 mM Tris-HCl pH 7.5, 150 mM NaCl, 5 mM MgCl2, 1 mM EDTA, 1 mM DTT, 4% glycerol, 24 C or room temperature, 30-40 min; SPR: 20 mM Tris-HCl pH 7.5, 150 mM; settings: protein: recombinant; tags: N-terminal GST; blunt
[3] = molecular target: T1, MLDSR (GST-MLDSR); experiment: SPR; EMSA: 20 mM Tris-HCl pH 7.5, 150 mM NaCl, 5 mM MgCl2, 1 mM EDTA, 1 mM DTT, 4% glycerol, 24 C or room temperature, 30-40 min; SPR: 20 mM Tris-HCl pH 7.5, 150 mM; settings: protein: recombinant; tags: N-terminal GST; label: 5'-biotin on strand 1; blunt
[4] = molecular target: T1, MLDSR (GST-MLDSR); experiment: EMSA; EMSA: 20 mM Tris-HCl pH 7.5, 150 mM NaCl, 5 mM MgCl2, 1 mM EDTA, 1 mM DTT, 4% glycerol, 24 C or room temperature, 30-40 min; SPR: 20 mM Tris-HCl pH 7.5, 150 mM; settings: protein: recombinant; tags: N-terminal GST; blunt

B1: biotin-43 bp (motif 1+2) (dsDNA)
DNA 1: TCCGCTAGCTGGGTGCTAACAGAGTGCTTGCAATTGCTAGCAC
DNA 2: GTGCTAGCAATTGCAAGCACTCTGTTAGCACCCAGCTAGCGGA
Question: For B1, which Kd [1] is on record?
Answer: The Kd was 62 nM.

B2: 43 bp (motif 1+2) (dsDNA)
DNA 1: TCCGCTAGCTGGGTGCTAACAGAGTGCTTGCAATTGCTAGCAC
DNA 2: GTGCTAGCAATTGCAAGCACTCTGTTAGCACCCAGCTAGCGGA
Question: For B2, which Kd [2] is on record?
Answer: Its Kd is ~442 nM.

B3: biotin-motif 2 (23 bp) (dsDNA)
DNA 1: TCCGCTAGCTGGGTGCTAACAGA
DNA 2: TCTGTTAGCACCCAGCTAGCGGA
Question: B3 was tested. Which Kd [3] did it give?
Answer: The Kd was 5140 nM.

B4: 103 bp (dsDNA)
DNA 1: CAATCGCCTCGACGGAGGGTCCGCTAGCTGGGTGCTAACAGAGTGCTTGCAATTGCTAGCACCCTGCTTTAGCCTTGGTTCTGCCCAGCAACACGGAGGACTG
DNA 2: CAGTCCTCCGTGTTGCTGGGCAGAACCAAGGCTAAAGCAGGGTGCTAGCAATTGCAAGCACTCTGTTAGCACCCAGCTAGCGGACCCTCCGTCGAGGCGATTG
Question: Does B4 bind [4]?
Answer: Result: binds

B5: biotin-motif 1 (20 bp) (dsDNA)
DNA 1: GTGCTTGCAATTGCTAGCAC
DNA 2: GTGCTAGCAATTGCAAGCAC
Question: For B5, which Kd [3] is on record?
Answer: Its Kd is 175 nM.
